From paper doi:10.1101/2025.07.24.666505
pKd: −log10 of the molar value.

Tests used:
[1] = molecular target: DNA gyrase (GyrA+GyrB, full Gyrase);VcParE2 (Escherichia coli;Vibrio cholerae) (UniProt P0AES4+P0AES6+Q9KMJ0); assay: EMSA
[2] = molecular target: Vibrio cholerae ParE2 (VcParE2), wild type, C-terminally histidine-tagged (Vibrio cholerae); assay: BLI

UniProt P0AES4, sequence (P0AES4 whole entry, one chain of several): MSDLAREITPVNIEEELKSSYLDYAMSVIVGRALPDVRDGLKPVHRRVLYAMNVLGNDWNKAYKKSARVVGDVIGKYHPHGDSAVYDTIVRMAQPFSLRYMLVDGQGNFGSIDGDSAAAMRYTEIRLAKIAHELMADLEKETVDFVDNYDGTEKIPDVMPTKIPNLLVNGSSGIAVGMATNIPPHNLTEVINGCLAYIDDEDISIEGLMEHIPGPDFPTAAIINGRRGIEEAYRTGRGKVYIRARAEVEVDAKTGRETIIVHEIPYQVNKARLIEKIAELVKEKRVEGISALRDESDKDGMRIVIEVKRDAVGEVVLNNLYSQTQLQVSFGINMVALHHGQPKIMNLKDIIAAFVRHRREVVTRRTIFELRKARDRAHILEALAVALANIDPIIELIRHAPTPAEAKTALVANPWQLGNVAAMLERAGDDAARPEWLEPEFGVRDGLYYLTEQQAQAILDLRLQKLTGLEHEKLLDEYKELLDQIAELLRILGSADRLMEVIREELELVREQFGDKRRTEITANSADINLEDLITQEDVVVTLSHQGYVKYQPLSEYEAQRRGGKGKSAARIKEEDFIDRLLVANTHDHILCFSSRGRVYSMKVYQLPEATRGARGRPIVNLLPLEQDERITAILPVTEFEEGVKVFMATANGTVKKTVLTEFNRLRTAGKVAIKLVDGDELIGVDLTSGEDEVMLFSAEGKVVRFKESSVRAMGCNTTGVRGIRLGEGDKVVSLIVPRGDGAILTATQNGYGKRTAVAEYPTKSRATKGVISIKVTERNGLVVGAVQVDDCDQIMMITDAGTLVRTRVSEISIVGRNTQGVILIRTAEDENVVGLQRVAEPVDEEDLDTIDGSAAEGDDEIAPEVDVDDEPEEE

| Substance | binding [1] | pKd [2] |
| --- | --- | --- |
| GCTGCTCATCATGGTTTGTGAGCAGTCAGTTTGCGGGAGGTGCGGGAAAATCTGGGGTTATGCTATTTGAGTACTGGAGAAAGAAAGTGAAAGGAAGATAAAACGGGATTCATACACCGTTAAATACCGGTTTAAAAATCCCGTGGCGCGTTTTAAAAAATCTGTGCGGCTGATTTTATGCCTGATTCTGTTTATTGCCTCAGAGCGGCGCTGACGCGTTTTCTGATGGCATCAAAAATTTCCTGTTCCCCGGTCTTATCCAGCCCCATATAAGGACGCGCAGGAA (double strand) [286-bp Mu strong gyrase site fragment] | binds | – |
| VcParD2 peptide E41-S60 (N-terminal helix of the C-terminal domain) | – | 6.11 |
